Molecular target: SUSD5 protein, expressed on HEK293 cells (ZsGreen1-SUSD5 vector) (Homo sapiens, UniProt O60279)
Assay: flow cytometry on cells

SUSD5 protein, expressed on HEK293 cells (ZsGreen1-SUSD5 vector), sequence (O60279 36-629): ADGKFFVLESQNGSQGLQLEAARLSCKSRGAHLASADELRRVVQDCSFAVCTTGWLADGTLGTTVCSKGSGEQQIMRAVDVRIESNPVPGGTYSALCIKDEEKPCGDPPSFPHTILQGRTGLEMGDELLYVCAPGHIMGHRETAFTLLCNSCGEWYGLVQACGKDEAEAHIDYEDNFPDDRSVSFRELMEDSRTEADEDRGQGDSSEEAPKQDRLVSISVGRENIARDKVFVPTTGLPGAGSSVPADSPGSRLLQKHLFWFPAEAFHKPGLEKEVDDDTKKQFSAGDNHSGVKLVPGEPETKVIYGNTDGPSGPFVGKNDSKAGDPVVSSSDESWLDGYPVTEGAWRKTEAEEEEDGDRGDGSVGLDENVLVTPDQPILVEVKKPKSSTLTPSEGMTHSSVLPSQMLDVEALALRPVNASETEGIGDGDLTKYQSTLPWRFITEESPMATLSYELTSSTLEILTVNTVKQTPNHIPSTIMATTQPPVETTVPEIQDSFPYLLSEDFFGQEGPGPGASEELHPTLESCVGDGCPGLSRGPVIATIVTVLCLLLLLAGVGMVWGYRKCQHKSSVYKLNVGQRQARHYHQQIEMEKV

B1: h1-3F1, stabilized humanized anti-CD169 mAb of clone #3F1 (variant 6 of h0-3F1) (antibody, V domains shown)
VH: QVQLVQSGAEVKKPGASVKVSCKASGYSFTTYYMHWVRQAPGQRLEWMGWISAYSGATKYSQKFQGRVTITRDTSASTAYMELSSLRSEDTAVYYCARKGGWIPFDYWGQGTTVTVSS
VL: not shown
binding result: binds

— article PMC12327374 (Biomedicine & pharmacotherapy = Biomedecine & …, 2024)
